{"source": "patent US20170119790A1", "about": "“Agents, Uses and Methods” (CYTOGUIDE A/S, priority 2009, published 2017)", "key": {"[1]": {"test_system": "TNF production of pro-inflammatory macrophages", "experiment": "Inhibition of LPS induction of TNF production in in vitro matured pro-inflammatory macrophages", "assay_type": "cell-based, human", "details": "compared with free dexamethasone / buffer, FIG. 30-31", "method": "Monocytes were obtained from MNC after isolation using Dynal Monocyte Negative\nMonocytes were resuspended in RMPI 1640 medium (Sigma-Aldrich, Brøndby, Denmark) containing 20% fetal calf serum (FCS) supplemented with 100 ng/ml M-CSF (GenScript Corporation, New Jersey, USA) and penicillin/streptomycin (pen/strep) for 7 days. The first 3 days in Tissue Culture Flasks at 37° C. and 5% CO2. The monocytes were then detached from the flask by flushing and scraping. The monocytes were divided into smaller portions and further grown for four days. 0.9×10^5 cells per well were grown in 96 well tissue culture plates for TNF CBA use.\nSubsequently, the macrophages were activated in RMPI 1640 containing 5% FCS, 1 ug/ml lipopolysaccaride (LPS) (Sigma-Aldrich, Brøndby, Denmark) and 20 ng/ml INF-gamma (Genscript Corporation, New Jersey, USA) for 18 hours making them pro-inflammatory.\nThe pro-inflammatory macrophages were stimulated with RMPI160, 5% FCS, 1 ug/ml LPS and 20 ng/ml INF-gamma containing either dexamethasone, Ab-dexamethasone or no drug.\nTo detect the change in soluble TNF-alpha concentration we used the Cytometry Bead Array Kit (BD Biosciences, New Jersey, USA). The media from the in vitro stimulated macrophages (described earlier) grown in 96 well tissue culture plates were analyzed according to the manufacturer's protocol."}, "[2]": {"test_system": "non-transfected Flp-In CHO cells", "experiment": "Cellular binding and uptake of 125I-labeled anti-CD163, control cells", "assay_type": "cell-based, Chinese hamster", "details": "125I-labelled mAb", "source_text": "Endocytosis of ^125I-labeled anti-CD163 was investigated in CD163 transfected Flp-In Chinese hamster ovary (CHO) cells and mock-transfected Flp-In as described (Madsen, M., Moller, H. J., Nielsen, M. J., Jacobsen, C., Graversen, J. H., van den Berg, T. and Moestrup, S. K. (2004) Molecular characterization of the haptoglobin.hemoglobin receptor CD163. Ligand binding properties of the scavenger receptor cysteine-rich domain region. J. Biol. Chem., 279, 51561-51567.)"}}, "data": [{"molecule": "MAC2-158: anti-human CD163 murine mAb, binds SRCR domain 1, IQ Products; VH SEQ ID NO: 1, VL SEQ ID NO: 2 (antibody, V domains shown, Mac2-158 VH; Mac2-158 VL) VH: DVQLQESGPGLVKPSQSLSLTCTVTGYSITSDYAWNWIRQFPGNKLEWMGYITYSGITNYNPSLKSQISITRDTSKNQFFLQLNSVTTEDTATYYCVSGTYYFDYWGQGTTLTVSS VL: SVVMTQTPKSLLISIGDRVTITCKASQSVSSDVAWFQQKPGQSPKPLIYYASNRYTGVPDRFTGSGYGTDFTFTISSVQAEDLAVYFCGQDYTSPRTFGGGTKLEIKRA", "values": [{"measurement": "effect on TNF production of macrophages", "setting": "[1]", "value": "no effect different from buffer"}, {"measurement": "percentage of cell-associated radioactivity reached", "setting": "[2]", "value": 1.37, "unit": "%"}]}]}
